According to patent publication US20250213627A1 (BAYLOR COLLEGE OF MEDICINE, published 2025):

Key:
[1] = target: mKv1.3 channel stably expressed in mouse L929 fibroblasts (mouse, UniProt P16390 1-528); experiment: cell-based or functional assay
[2] = target: Kv1.3 potassium channel (species not stated for this experiment); experiment: cell-based or functional assay

mKv1.3 channel stably expressed in mouse L929 fibroblasts, sequence (P16390 whole entry): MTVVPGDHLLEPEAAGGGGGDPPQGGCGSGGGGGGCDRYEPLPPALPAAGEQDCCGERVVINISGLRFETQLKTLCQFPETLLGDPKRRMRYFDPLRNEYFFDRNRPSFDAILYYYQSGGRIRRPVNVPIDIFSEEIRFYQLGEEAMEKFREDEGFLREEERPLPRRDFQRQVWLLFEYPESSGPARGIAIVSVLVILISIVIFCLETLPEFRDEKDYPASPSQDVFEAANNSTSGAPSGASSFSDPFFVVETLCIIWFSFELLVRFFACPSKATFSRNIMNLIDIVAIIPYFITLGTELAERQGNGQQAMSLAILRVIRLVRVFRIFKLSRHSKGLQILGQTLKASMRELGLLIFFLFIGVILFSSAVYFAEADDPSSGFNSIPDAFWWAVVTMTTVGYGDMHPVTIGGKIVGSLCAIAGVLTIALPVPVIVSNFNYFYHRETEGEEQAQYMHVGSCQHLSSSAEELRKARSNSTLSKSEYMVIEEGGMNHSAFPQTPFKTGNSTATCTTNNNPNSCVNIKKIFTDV

## RSCIDTIPKSRCTAFKCKHSIKYRLSFCRKTCGTCA (3 disulfide bonds (oxidatively folded synthetic peptide)) [synthetic ShK-235]
[1]
  IC50 of block of mKv1.3 currents (whole-cell patch-clamp, L929 cells): 0.0693 nM
[2]
  IC50 of block of Kv1.3 channel function (whole-cell patch-clamp): 0.062 nM
